Source: US20100086555A1
Numbering of substitutions follows the chain as printed. Where two headings read alike, the source gives them in different places.

Assays:
[1] = target: recombinant trimeric H5 HA (A/VN/1203/04) (influenza A virus A/VN/1203/04 (H5N1)); assay: competition ELISA on recombinant trimeric H5 HA; competitor C179
[2] = target: recombinant trimeric H5 HA (A/VN/1203/04) (influenza A virus A/VN/1203/04 (H5N1)); assay: competition ELISA on recombinant trimeric H5 HA; competitor FLD21
[3] = target: H5 HA A/VN/1203/04 (on pseudotypes and on infectious virus) (influenza A virus A/VN/1203/04 (H5N1)); assay: cell-based or functional assay
[4] = target: H1 HA A/NJ/76 (on infectious virus) (influenza A virus A/NJ/76 (H1N1)); assay: cell-based or functional assay
[5] = target: H1 HA A/swine/Iowa/31 (on infectious virus) (influenza A virus A/swine/Iowa/31 (H1N1)); assay: cell-based or functional assay
[6] = target: H1 HA A/CA/07/09 (on infectious virus) (influenza A virus A/CA/07/09 (H1N1)); assay: cell-based or functional assay
[7] = target: H1 HA A/PR/8/34 (on infectious virus) (influenza A virus A/PR/8/34 (H1N1)) (UniProt P03452); assay: cell-based or functional assay
[8] = target: H1 HA A/Texas/3/99 (ELISA antigen) (influenza A virus A/Texas/3/99 (H1)); assay: ELISA
[9] = target: H1 HA A/SI/3/06 (ELISA antigen) (influenza A virus A/SI/3/06 (H1)); assay: ELISA
[10] = target: H9 HA A/HK/1073/99 (ELISA antigen) (influenza A virus A/HK/1073/99 (H9)); assay: ELISA
[11] = target: H5 HA A/INDO/5/05 (ELISA antigen) (influenza A virus A/INDO/5/05 (H5N1)); assay: ELISA
[12] = target: recombinant trimeric H5 HA (A/VN/1203/04) (influenza A virus A/VN/1203/04 (H5N1)); assay: ELISA
[13] = target: H9 HA A/ck/HK/G9/97 (on infectious virus) (influenza A virus A/ck/HK/G9/97 (H9N2)); assay: cell-based or functional assay
[14] = target: H5 HA A/WS/Mong/244/05 (on pseudotypes) (influenza A virus A/WS/Mong/244/05 (H5N1)); assay: cell-based or functional assay
[15] = target: H5 HA A/INDO/5/05 (on pseudotypes and on infectious virus) (influenza A virus A/INDO/5/05 (H5N1)); assay: cell-based or functional assay
[16] = target: H3 HA A/WY/3/03 (on infectious virus) (influenza A virus A/WY/3/03 (H3N2)); assay: cell-based or functional assay
[17] = target: H5 HA A/HK/213/03 (on pseudotypes) (influenza A virus A/HK/213/03 (H5N1)); assay: cell-based or functional assay
[18] = target: H5 HA A/VN/1203/04 (on pseudotypes and on infectious virus) (influenza A virus A/VN/1203/04 (H5N1)); assay: cell-based or functional assay; remark: listed apart in the source
[19] = target: H1 HA A/NJ/76 (on infectious virus) (influenza A virus A/NJ/76 (H1N1)); assay: cell-based or functional assay; remark: listed apart in the source
[20] = target: H1 HA A/SI/3/06 (on infectious virus) (influenza A virus A/SI/3/06 (H1N1)); assay: cell-based or functional assay
[21] = target: H1 HA A/swine/Iowa/31 (on infectious virus) (influenza A virus A/swine/Iowa/31 (H1N1)); assay: cell-based or functional assay; remark: listed apart in the source
[22] = target: H9 HA A/HK/1073/99 (on infectious virus) (influenza A virus A/HK/1073/99 (H9N2)); assay: cell-based or functional assay
[23] = target: H1 HA A/CA/07/09 (on infectious virus) (influenza A virus A/CA/07/09 (H1N1)); assay: cell-based or functional assay; remark: listed apart in the source
[24] = target: H6 HA A/teal/HK/WN312/97 (on infectious virus) (influenza A virus A/teal/HK/W312/97 (H6N1)); assay: cell-based or functional assay
[25] = target: H1 HA A/NC/20/99 (on infectious virus) (influenza A virus A/NC/20/99 (H1N1)); assay: cell-based or functional assay
[26] = target: H5 HA A/Anhui/1/5 (on pseudotypes) (influenza A virus A/Anhui/1/5 (H5N1)); assay: cell-based or functional assay
[27] = target: H5 HA A/VN/1194/04 (on pseudotypes) (influenza A virus A/VN/1194/04 (H5N1)); assay: cell-based or functional assay
[28] = target: H1 HA A/PR/8/34 (on infectious virus) (influenza A virus A/PR/8/34 (H1N1)) (UniProt P03452); assay: cell-based or functional assay; remark: listed apart in the source
[29] = target: H5 HA A/HK/491/97 (on pseudotypes) (influenza A virus A/HK/491/97 (H5N1)); assay: cell-based or functional assay

B1: FE43 (antibody, V domains shown)
VH: QVHLVQSGAEVKKPGSSVRLSCSASGGPFSGFAISWLRQAPGQGLEWLGGISAVFGTATYAQKFQGRVTITADQFTSTSHMDLSRLTYDDTAVYYCARSGGYLPQNNWIDPWGQGTLVIVSS
VL: DIVMTQTPLSLSVTPGQPASISCKSSQSLLHSDGKTYLYWYLQKPGQSPQLLIYEVSNRFSGVPDRFSGSGSGTDFTLKISRVEAEDVGVYYCMQNILLPLTFGGGTKVEIK
Competition (%) [1]: 100%
Competition (%) [2]: < 20%
Neutralization of infectious viruses (IC50) [3]: > 50 µg/mL
Neutralization of infectious viruses (IC50) [4]: 9 µg/mL
Neutralization of infectious viruses (IC50) [5]: 3 µg/mL
Neutralization of infectious viruses (IC50) [6]: 4 µg/mL
Neutralization of infectious viruses (IC50) [7]: 1.5 µg/mL
K50 [8]: 0.013 µg/mL
K50 [9]: 0.206 µg/mL
K50 [10]: 0.307 µg/mL
K50 [11]: 4.54 µg/mL
K50 [12]: 0.029 µg/mL
Neutralization H9N2 IC50 [13]: 0.02 µg/mL
Neutralization of infectious viruses (IC50) [13]: 4 µg/mL
Neutralization of HA-pseudotypes (IC90) [14]: 0.186 µg/mL
Neutralization of HA-pseudotypes (IC90) [15]: 0.39 µg/mL
Neutralization of infectious viruses (IC50) [15]: 25 µg/mL
Neutralization H3N2 IC50 [16]: > 50 µg/mL
Neutralization of HA-pseudotypes (IC90) [17]: 0.07 µg/mL
Hemagglutination inhibition titer [18]: < 5
Neutralization H5N1 IC50 [18]: > 50 µg/mL
Neutralization of HA-pseudotypes (IC90) [18]: 0.146 µg/mL
Hemagglutination inhibition titer [19]: < 5
Neutralization H1N1 IC90 [20]: 6.2 µg/mL
Neutralization of infectious viruses (IC50) [20]: 9 µg/mL
Hemagglutination inhibition titer [21]: 20
Neutralization of infectious viruses (IC50) [22]: 50 µg/mL
Hemagglutination inhibition titer [23]: < 5
Neutralization of infectious viruses (IC50) [24]: 20 µg/mL
Neutralization H1N1 IC90 [25]: 6.2 µg/mL
Neutralization of infectious viruses (IC50) [25]: 40 µg/mL
Neutralization of HA-pseudotypes (IC90) [26]: 0.137 µg/mL
Neutralization H5pp IC90 [27]: 0.03 µg/mL
Neutralization of HA-pseudotypes (IC90) [27]: 0.061 µg/mL
Hemagglutination inhibition titer [28]: < 5
Neutralization of infectious viruses (IC50) [28]: 4 µg/mL
Neutralization of HA-pseudotypes (IC90) [29]: 0.053 µg/mL

B2: FC6 (antibody, V domains shown)
VH: QGQLVQSGAEVKKSGSSVKVSCKTSGGTFNSHAISWVRQAPGQGLEWIGGIIPMFGTTNYAQKLKGRIAITADQLPTTAYLELSSLRSEDTAVYYCARGQRYYYDRDGMDVWGQGTMVTVSS
VL: B1 VL with D1E, K24R, S48P, Y54S, S57F, N96S, I97L, L98Q
Competition (%) [1]: 100%
Competition (%) [2]: < 20%
K50 [8]: 0.066 µg/mL
K50 [9]: 1.47 µg/mL
K50 [10]: 0.15 µg/mL
K50 [12]: 0.157 µg/mL
Neutralization of infectious viruses (IC50) [13]: 9 µg/mL
Neutralization of HA-pseudotypes (IC90) [14]: 0.073 µg/mL
Neutralization of HA-pseudotypes (IC90) [15]: 0.242 µg/mL
Neutralization of infectious viruses (IC50) [15]: 31 µg/mL
Neutralization of HA-pseudotypes (IC90) [17]: 0.077 µg/mL
Neutralization of HA-pseudotypes (IC90) [18]: 0.096 µg/mL
Neutralization H1N1 IC90 [20]: 12.5 µg/mL
Neutralization of infectious viruses (IC50) [20]: 18 µg/mL
Neutralization of infectious viruses (IC50) [22]: 36 µg/mL
Neutralization of infectious viruses (IC50) [24]: 63 µg/mL
Neutralization H1N1 IC90 [25]: 12.5 µg/mL
Neutralization of infectious viruses (IC50) [25]: 40 µg/mL
Neutralization of HA-pseudotypes (IC90) [26]: 0.112 µg/mL
Neutralization H5pp IC90 [27]: 0.04 µg/mL
Neutralization of HA-pseudotypes (IC90) [27]: 0.061 µg/mL
Neutralization of infectious viruses (IC50) [28]: 16 µg/mL
Neutralization of HA-pseudotypes (IC90) [29]: 0.081 µg/mL
